Tested on: RR-Src peptide

| Substance | KM (mM) for protein substrate RR-Src, ATP saturated [mM] | KM (mM) for protein substrate RR-Src, N^6-(cyclopentyl)ATP saturated [mM] |
| --- | --- | --- |
| GST-XD4 (glutathione S-transferase fusion of the XD4 fragment of v-Src, wild-type catalytic domain) | 2.6 | – |
| GST-XD4(V323A, I338A) | 3.1 | 2.1 |

From patent US20030073218
